We go through two molecules from PMC7112233, “E2f5 is a versatile transcriptional activator required for spermatogenesis and multiciliated cell differentiation in zebrafish”.

The series addresses T1, E2f5 (zebrafish, UniProt A5WUE8 1-363).
T1 sequence: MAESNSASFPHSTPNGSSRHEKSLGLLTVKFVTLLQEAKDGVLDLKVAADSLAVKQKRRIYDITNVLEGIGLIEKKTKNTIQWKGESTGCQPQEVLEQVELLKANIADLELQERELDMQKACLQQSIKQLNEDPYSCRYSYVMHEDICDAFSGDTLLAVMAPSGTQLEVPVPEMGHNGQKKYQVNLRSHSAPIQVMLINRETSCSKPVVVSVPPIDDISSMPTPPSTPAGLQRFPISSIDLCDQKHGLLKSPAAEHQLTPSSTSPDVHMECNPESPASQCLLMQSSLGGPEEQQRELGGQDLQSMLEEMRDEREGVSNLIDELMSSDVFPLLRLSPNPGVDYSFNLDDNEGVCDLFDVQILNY
Briefly: EMSA; 10 mM Tris-HCl pH 8.0, 50 mM NaCl, 1 mM MgCl2, 0.5 mM EDTA, 0.5 mM DTT, 4% glycerol; 3 ug protein, 1 ul annealed oligo (25 uM stock); 40 min room temperature; 6.5% native PAGE. Particulars: protein: recombinant; tags: His (pET30A, Ni-NTA purified); label: 5'-FAM; annealed with complementary oligonucleotide. In general terms: In EMSA bound probe runs differently from free probe, usually more slowly.

B1: dmc1 E2F site mutant probe (dsDNA)
DNA 1: TGTCAACATACGATTGTAAATTTAAATTTCTTTCAGC
DNA 2: GCTGAAAGAAATTTAAATTTACAATCGTATGTTGACA
For B1, the binding result is recorded as “no binding”.

B2: dmc1 E2F site wild-type probe (dsDNA)
DNA 1: TGTCAACATACGATTGTGGCGCGAAATTTCTTTCAGC
DNA 2: GCTGAAAGAAATTTCGCGCCACAATCGTATGTTGACA
Consider B2, for which the binding result is reported as “binds”.
